Reference: PMC10159624
“And” between values parts separate entries of the source, which are not always exact repeats. Equal values may be shown once.

Tests used:
Assay in all cases: EMSA
Details in all cases: 25 mM Tris pH 8.0, 100 mM KCl, 10 mM MgCl2, 10% glycerol, 1 mM TCEP, +/- 5 mM ATP-MgOAc2, 20 pM dsRNA, 30 min at 4 C; 5% native PAGE in 0.5x TBE at 4 C
[1] = system: AncD1LOPH/DEUT HEL-DUF (reconstructed ancestor (lophotrochozoan/deuterostome Dicer-1, ML tree))
[2] = system: AncD1D2 HEL-DUF (reconstructed ancestor (animal Dicer-1/Dicer-2, ML tree))
[3] = system: AncD1DEUT HEL-DUF (reconstructed ancestor (deuterostome Dicer-1, ML tree))
[4] = system: AncD1ARTH/LOPH/DEUT HEL-DUF (reconstructed ancestor (arthropod/lophotrochozoan/deuterostome Dicer-1, ML tree))
[5] = system: AncD1VERT HEL-DUF (reconstructed ancestor (vertebrate Dicer-1, ML tree))

Sequence | Kd [1] | Kd [2] | Kd [3] | Kd [4] | Kd [5]
GGGAAGCUCAGAAUAUUGCACAAGUAGAGCUUCUCGAUCCCC / GGAUCGAGAAGCUCUACUUGUGCAAUAUUCUGAGCUUCCCGG [42-bp 3'ovr dsRNA] | 49 nM and 90.8 nM | 6.5 nM and 15.9 nM | 140 nM and 150 nM | 40.1 nM and 17.3 nM | 538 nM and 500 nM
GGGAAGCUCAGAAUAUUGCACAAGUAGAGCUUCUCGAUCCCC / GGGGAUCGAGAAGCUCUACUUGUGCAAUAUUCUGAGCUUCCC [42-bp BLT dsRNA] | 38 nM and 60.9 nM | 3.4 nM and 6.4 nM | 145 nM and 132 nM | 23.8 nM and 17.5 nM | 502 nM and 592 nM
